Biological target: ThaI restriction endonuclease (Thermoplasma acidophilum strain ATCC 25905)
Experiment: SEC

- stoichiometry N: 2
Substance: ThaI restriction endonuclease (enzyme)
